Data from patent publication US20200317768A1 (published 2020).

T1: Cynomolgus monkey latent myostatin (cynomolgus monkey, UniProt Q95J86 25-266; Q95J86 267-375)
T1 construct: Latent form = complex of two propeptides and the mature dimer; also called Cyno latent myostatin
T1 sequence 1: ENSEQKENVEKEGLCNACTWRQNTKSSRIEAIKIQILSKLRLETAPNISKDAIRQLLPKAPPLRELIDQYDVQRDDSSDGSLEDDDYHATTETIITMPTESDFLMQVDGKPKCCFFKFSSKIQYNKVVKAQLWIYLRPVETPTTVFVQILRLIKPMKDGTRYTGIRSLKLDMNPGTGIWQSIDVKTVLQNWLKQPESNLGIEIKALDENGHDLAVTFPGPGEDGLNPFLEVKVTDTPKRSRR
T1 sequence 2: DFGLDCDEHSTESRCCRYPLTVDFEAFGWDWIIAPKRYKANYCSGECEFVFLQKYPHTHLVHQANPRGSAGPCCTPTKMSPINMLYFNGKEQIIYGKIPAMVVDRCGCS

T2: Mouse latent myostatin (mouse, UniProt O08689 26-267; O08689 268-376)
T2 construct: Latent form = complex of two propeptides and the mature dimer
T2 sequence 1: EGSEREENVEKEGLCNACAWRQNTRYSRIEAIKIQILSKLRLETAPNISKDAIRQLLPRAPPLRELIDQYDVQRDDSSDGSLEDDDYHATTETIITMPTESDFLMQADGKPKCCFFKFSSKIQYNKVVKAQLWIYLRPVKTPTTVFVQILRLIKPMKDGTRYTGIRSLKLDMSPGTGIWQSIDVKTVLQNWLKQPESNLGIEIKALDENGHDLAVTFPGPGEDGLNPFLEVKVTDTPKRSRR
T2 sequence 2: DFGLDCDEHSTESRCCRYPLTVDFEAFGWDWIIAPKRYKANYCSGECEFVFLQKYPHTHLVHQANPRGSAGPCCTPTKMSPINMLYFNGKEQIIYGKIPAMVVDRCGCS

T3: Human latent myostatin (human, UniProt O14793 25-266; O14793 267-375)
T3 construct: also called human myostatin latent form
T3 sequence 1: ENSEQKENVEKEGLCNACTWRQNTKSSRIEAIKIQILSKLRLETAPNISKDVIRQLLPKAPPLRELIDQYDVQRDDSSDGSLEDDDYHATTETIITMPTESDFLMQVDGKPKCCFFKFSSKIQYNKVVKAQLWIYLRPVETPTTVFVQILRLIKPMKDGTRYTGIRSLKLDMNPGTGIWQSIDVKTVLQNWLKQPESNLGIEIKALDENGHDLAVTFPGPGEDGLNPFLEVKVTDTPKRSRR
T3 sequence 2: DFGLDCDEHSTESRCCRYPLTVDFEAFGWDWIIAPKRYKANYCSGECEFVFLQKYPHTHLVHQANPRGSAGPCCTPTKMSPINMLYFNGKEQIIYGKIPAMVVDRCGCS

T4: cynomolgus monkey FcγRIIIaS extracellular domain with C-terminal His-tag (cynomolgus monkey, UniProt Q8SPW2 21-206 at identity 1.00))
T4 construct: also called cyno FcgRIIIaS; cynoFcγRIIIaS
T4 chain: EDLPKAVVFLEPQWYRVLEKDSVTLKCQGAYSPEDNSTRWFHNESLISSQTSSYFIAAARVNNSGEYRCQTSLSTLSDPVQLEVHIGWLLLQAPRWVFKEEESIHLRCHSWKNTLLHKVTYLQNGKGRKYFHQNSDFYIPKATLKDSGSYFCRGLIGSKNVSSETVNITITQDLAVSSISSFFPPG

T5: human FcγRIIb extracellular domain with C-terminal His-tag (human, UniProt P31994 43-217)
T5 construct: also called human FcgRIIb
T5 sequence: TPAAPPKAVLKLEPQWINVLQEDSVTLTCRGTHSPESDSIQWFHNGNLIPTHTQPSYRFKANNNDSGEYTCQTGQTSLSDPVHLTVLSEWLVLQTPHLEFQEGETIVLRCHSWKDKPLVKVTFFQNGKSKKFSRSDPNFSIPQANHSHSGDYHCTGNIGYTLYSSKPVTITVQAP


Columns and labels:
[1] = molecular target: T1, Cynomolgus monkey latent myostatin; assay: SPR (BIACORE T200) 37C, pH 7.4, antibody captured by ProA/G
Protocol: (§1) ProA/G (Pierce) was immobilized onto all flow cells of a CM4 chip using an amine coupling kit (GE Healthcare). All antibodies and analytes were prepared in ACES pH7.4 or pH5.8 buffer containing 20 mM ACES, 150 mM NaCl, 1.2 mM CaCl₂, 0.05% TWEEN®) 20, 0.005% NaN₃. […] Human, cyno, and mouse latent myostatin was injected at 3.125 to 50 nM prepared by two-fold serial dilution, followed by dissociation. The sensor surface was regenerated each cycle with 10 mM Glycine HCl pH1.5. Binding affinity was determined by processing and fitting the data to a 1:1 binding model using BIACORE® T200 Evaluation software, version 2.0 (GE Healthcare).

Mouse latent myostatin = molecular target: T2, Mouse latent myostatin; assay: as above
Protocol: as §1

Human latent myostatin = molecular target: T3, Human latent myostatin; assay: as above
Protocol: as §1

[2] = molecular target: T6, human FcγRIIIaV extracellular domain with C-terminal His-tag (human, UniProt P08637 17-208); assay: SPR (BIACORE); KD of SG1 / KD of variant;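 also: relative to parent M103205H795-SG1 carrying the SG1 human heavy chain constant region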
T6 construct: also called human FcgRIIIaV
T6 sequence (P08637 17-208 F176V): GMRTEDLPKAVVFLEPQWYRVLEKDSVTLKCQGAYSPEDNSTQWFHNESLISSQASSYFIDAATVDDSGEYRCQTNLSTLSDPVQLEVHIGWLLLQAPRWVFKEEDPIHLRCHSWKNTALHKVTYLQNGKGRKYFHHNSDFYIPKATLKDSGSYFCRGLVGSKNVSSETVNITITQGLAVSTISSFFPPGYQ
Protocol: (§2) The kinetic analysis of interactions between these antibodies and FcγR was carried out using BIACORE® T200 or BIACORE® 4000 (GE Healthcare). HBS-EP+ (GE Healthcare) was used as the running buffer, and the measurement temperature was set to 25° C. A chip produced by immobilizing Protein A. Protein A/G or mouse anti-human IgG kappa light chain (BD Biosciences) onto a Series S Sensor Chip CM4 or CM5 (GE Healthcare) by the amine-coupling method was used. […] After the measurement, the antibody captured on the chip was washed off by allowing reaction with 10 mM glycine-HCl, pH1.5 and 25 mM NaOH so that the chip was regenerated and used repeatedly. The sensorgrams obtained as measurement results were analyzed by the 1:1 Langmuir binding model using the BIACORE® Evaluation Software to calculate the binding rate constant ka (L/mol/s) and dissociation rate constant kd (l/s), and the dissociation constant KD (mol/L) was calculated from these values. […] Regarding such interactions, KD values were calculated using the following 1:1 binding model described in BIACORE® T100 Software Handbook BR1006-48 Edition AE.
(§3) The behavior of interacting molecules according to the 1:1 binding model on BIACORE® can be described by Equation 1: Req=C·R max/(KD+C)+RI, wherein, Req is a plot of steady-state binding levels to analyte concentration. C is concentration, RI is bulk refractive index contribution in the sample, and Rmax is analyte binding capacity of the surface. When this equation is rearranged, KD can be expressed as Equation 2: KD=C·Rmax/(Req−RI)−C. KD can be calculated by substituting the values of Rmax, RI, and C into Equation 1 or Equation 2. From the current measurement conditions, RI=0, C=2 μmol/L can be used.

[3] = molecular target: T4, cynomolgus monkey FcγRIIIaS …; assay: SPR (BIACORE); KD of SG1 / KD of variant;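 also: relative to parent M103205H795-SG1 carrying the SG1 human heavy chain constant region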
Protocol: as §2, §3

[4] = molecular target: T5, human FcγRIIb extracellular domain with …; assay: SPR (BIACORE); KD of SG1 / KD of variant;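 also: relative to parent M103205H795-SG1 carrying the SG1 human heavy chain constant region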
Protocol: as §2, §3

| Binder | Kd [1] [nM] | Kd (Mouse latent myostatin) [nM] | Kd (Human latent myostatin) [nM] | KD fold (SG1 = 1) [2] [fold] | KD fold (SG1 = 1) [3] [fold] | KD fold (SG1 = 1) [4] [fold] |
| --- | --- | --- | --- | --- | --- | --- |
| MS_M103205H795-SG1/M103202L889-SK1 (antibody, human IgG1, kappa, also called MS1032LO06-SG1) heavy: not shown light: DIVMTQSPATLSLSPGERATLSCTSSQSVYHANWLSWFQQKPGQPPKLLIYWASTLAYGVPSRFSGSGSGTDFTLTISSLQPEDAATYYCAGGYGGGRYAFGQGTKVEIKRTVAAPSVFIFPPSDEQLKSGTASVVCLLNNFYPREAKVQWKVDNALQSGNSQESVTEQDSKDSTYSLSSTLTLSKADYEKHKVYACEVTHQGLSSPVTKSFNRGEC | 0.343 | 0.299 | 0.285 | – | – | – |
| MS_M103205H795-SG1/M103202L889-SK1 (antibody, human IgG1, kappa, Parent antibody of the Fc variants; also called MS1032LO06-SG1) heavy: not shown light: DIVMTQSPATLSLSPGERATLSCTSSQSVYHANWLSWFQQKPGQPPKLLIYWASTLAYGVPSRFSGSGSGTDFTLTISSLQPEDAATYYCAGGYGGGRYAFGQGTKVEIKRTVAAPSVFIFPPSDEQLKSGTASVVCLLNNFYPREAKVQWKVDNALQSGNSQESVTEQDSKDSTYSLSSTLTLSKADYEKHKVYACEVTHQGLSSPVTKSFNRGEC | – | – | – | 1 | 1 | 1 |
